Measurements from PMC10692205, “Pyroptosis inhibiting nanobodies block Gasdermin D pore formation” (Nature Communications, 2023).

Legend:
[1] = molecular target: T1, human wild-type, full length Gasdermin D (GSDMD 1-484), chemically biotinylated (Homo sapiens (Human)., UniProt P57764, chemically biotinylated (ChromaLink Biotin), approximately 2 biotins per molecule); assay: SPR; Biacore 8K; chemically biotinylated full length GSDMD captured on Series S Sensor Chip CAP; nanobodies injected as analytes, multi-cycle kinetics (VHH-1, -2, -3, -5: 0.5-32 nM; VHH-4, -6: 64-4096 nM); 25 °C; 20 mM HEPES pH 8.0, 200 mM NaCl, 5 mM DTT, 0.05% Tween20; flow 30 µl/min; association 120 s, dissociation 300 s; 1:1 binding model; conditions: both partners purified
T1 construct: human Gasdermin D (GSDMD), wild type, full length, residues 1-484; also called human GSDMD wt, f.l; hGSDMD; source: E. coli Rosetta (DE3), purified (Ni-NTA, SUMO cleavage by ULP1, second Ni-NTA, SEC S200); chemically biotinylated (ChromaLink Biotin Labeling kit); not shown: His6-SUMO, N-terminal, cleaved

[2] = molecular target: T2, chemically biotinylated full length human Gasdermin D (GSDMD) (Homo sapiens (Human)., UniProt P57764, chemically biotinylated (ChromaLink Biotin), approximately 2 biotins per molecule; sites not stated); assay: SPR; chemically biotinylated GSDMD captured on a Series S Sensor Chip CAP (biotin capture kit); nanobodies injected as analytes, multi-cycle kinetics, 120 s association, 300 s dissociation, 1:1 binding model; 25 °C; 20 mM HEPES pH 8.0, 200 mM NaCl, 5 mM DTT, 0.05% Tween20; conditions: both partners purified
T2 construct: human Gasdermin D, wild-type, full length, residues 1-484; also called chemically biotinylated GSDMD; not shown: His6, N-terminal, cleaved; SUMO, N-terminal, cleaved

[3] = molecular target: T3, GSDMD_(Δ184-194/Δ247-272) (human, UniProt P57764, Δ184-194 | Δ247-272); assay: SEC-MALS; GSDMD_(Δ184-194/Δ247-272) mixed with VHH GSDMD-2, VHH GSDMD-6 or both at equimolar concentrations (189 µM); Superose 6 10/300 GL in GSDMD-SEC buffer; conditions: both partners purified
T3 construct: human Gasdermin D 1-484 with residues 184-194 (in the NTD) and 247-272 (linker between the domains) deleted; also called GSDMD crystallization construct; source: E. coli Rosetta (DE3), purified (Ni-NTA, ULP1 cleavage, second Ni-NTA, SEC); not shown: His6, N-terminal, cleaved; SUMO, N-terminal, cleaved

[4] = molecular target: T4, human wild-type, full length Gasdermin D (GSDMD) 1-484 (Homo sapiens (Human)., UniProt P57764); assay: cell-based or functional assay
[5] = molecular target: human wild-type, full length Gasdermin D (GSDMD 1-484), chemically biotinylated (human) (UniProt P57764); assay: SPR; Biacore 8K; chemically biotinylated full length GSDMD captured on Series S Sensor Chip CAP; nanobodies injected as analytes, multi-cycle kinetics (VHH-1, -2, -3, -5: 0.5-32 nM; VHH-4, -6: 64-4096 nM); 25 °C; 20 mM HEPES pH 8.0, 200 mM NaCl, 5 mM DTT, 0.05% Tween20; flow 30 µl/min; association 120 s, dissociation 300 s; 1:1 binding model
[6] = molecular target: T5, chemically biotinylated full length human Gasdermin D (GSDMD) (human, UniProt P57764 1-484, chemically biotinylated (ChromaLink Biotin), approximately 2 biotins per molecule; sites not stated); assay: SPR
T5 chain: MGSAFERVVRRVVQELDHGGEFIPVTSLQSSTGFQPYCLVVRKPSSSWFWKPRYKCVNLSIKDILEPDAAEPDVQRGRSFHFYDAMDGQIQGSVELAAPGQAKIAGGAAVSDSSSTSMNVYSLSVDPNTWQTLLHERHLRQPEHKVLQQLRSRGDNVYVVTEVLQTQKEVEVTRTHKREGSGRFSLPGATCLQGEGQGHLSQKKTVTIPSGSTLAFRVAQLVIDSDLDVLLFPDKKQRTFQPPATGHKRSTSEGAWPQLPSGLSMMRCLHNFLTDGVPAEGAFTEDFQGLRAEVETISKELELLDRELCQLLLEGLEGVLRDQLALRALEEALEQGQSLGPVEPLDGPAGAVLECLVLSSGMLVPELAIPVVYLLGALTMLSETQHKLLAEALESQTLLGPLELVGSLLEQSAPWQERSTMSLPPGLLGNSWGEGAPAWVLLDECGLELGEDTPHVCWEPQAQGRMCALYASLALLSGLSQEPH

[7] = molecular target: T4, human wild-type, full length Gasdermin …; assay: nanoDSF thermal shift; nanobodies titrated to GSDMD (5 µM) in increasing concentrations; heated 20 to 90 °C at 1.5 °C/min; fluorescence at 330 and 350 nm; conditions: both partners purified

B1: VHH_(GSDMD-3) (VHH)
VHH: QVQLVETGGGLVQPGGSLRLSCAASGFTLDIYNMGWFRQAPGKEREGVSCISSRYGTSTYYADSVKGRFTISRDNAKNTVYLQMNNLKPEDTAVYYCATVSWRFTTNQDVCLTPSVSGYWGQGTQVTVSS
notes: also called VHH-3; source: E. coli WK6, periplasmic expression (pHEN6), purified (Ni-NTA, SEC S75)
With B1 as the binder, how does the Kd [1] read?
Its Kd is 0.551 nM.

And the koff [1]?
The koff was 0.00154 s⁻¹.

And the kon [1]?
Its kon is 2.8e+06 M⁻¹ s⁻¹.

B2: VHH_(GSDMD-3) (VHH)
VHH: B1 VHH
notes: source: E. coli WK6, periplasmic expression (pHEN6), purified (Ni-NTA, gel filtration)
How did the Kd [2] turn out when B2 was run?
Its Kd is 0.55 nM.

B3: VHH_(GSDMD-2) (VHH)
VHH: QVQLVESGGGLVQPGGSLRLSCVDSRSWINVYGANWYRQAPGKERELVAALTSGGTTNYADSVKGRFTISRDNAKNTVYLQMRDLKPEDTAVYYCNLERYTGSSVYPWGQGTQVTVSS
notes: also called VHH-2; source: E. coli WK6, periplasmic expression (pHEN6), purified (Ni-NTA, SEC S75)
B3 was tested. Which Kd [1] did it give?
The Kd was 0.637 nM.

And the koff [1]?
The koff was 0.000951 s⁻¹.

What about the kon [1] of the same binder?
Its kon is 1.49e+06 M⁻¹ s⁻¹.

B4: VHH_(GSDMD-2) (VHH)
VHH: B3 VHH
notes: CDR1, -2, -3 of 10, 9 and 12 residues; disulfide C22-C95; also called VHH_(GSDMD-2)-LPETG-His; source: E. coli WK6, periplasmic expression (pHEN6), purified (Ni-NTA, gel filtration); not shown: LPETG, C-terminal, kept; His tag, C-terminal, kept
Which “stoichiometry N” value [3] does the source give for B4 here?
Its value is 1.

And the “IC50 of calcein release through GSDMD pores in the liposome leakage assay (nanobody 10 nM to 10 µM, 0.5 µM full length GSDMD, caspase-4, 180 min); what is blocked: formation of functional GSDMD pores” value [4]?
The value was 650 nM.

And the Kd [2]?
Its Kd is 0.64 nM.

B5: VHH_(GSDMD-6) (VHH)
VHH: QVQLVETGGGLVQPGGSLRLSCTASGFIFSANQMNWVRQAPGKGLEWLSGISTRGDTTSYADSVKGRFTISRDNAKNTLYLQMNSLQPDDTAVYFCARVCIRGPEPKLRCDDWGQGTQVTVSS
notes: also called VHH-6; source: E. coli WK6, periplasmic expression (pHEN6), purified (Ni-NTA, SEC S75)
With B5 as the binder, how does the Kd [1] read?
The Kd was 143 nM.

And the koff [1]?
The koff was 0.0201 s⁻¹.

And the kon [1]?
Its kon is 141000 M⁻¹ s⁻¹.

B6: VHH_(GSDMD-6) (VHH)
VHH: B5 VHH
notes: CDR3 of 15 residues with an additional disulfide C100-C110; also called VHH_(GSDMD-6)-HA-His; source: E. coli WK6, periplasmic expression (pHEN6), purified (Ni-NTA, gel filtration); not shown: HA, C-terminal, kept; His tag, C-terminal, kept
For B6, which “stoichiometry N” value [3] is on record?
Its value is 1.

What about the “IC50 of calcein release through GSDMD pores in the liposome leakage assay (nanobody 10 nM to 10 µM, 0.5 µM full length GSDMD, caspase-4, 180 min); what is blocked: formation of functional GSDMD pores” value [4] of the same binder?
Its value is 1300 nM.

B7: VHH_(GSDMD-4) (VHH)
VHH: QVQLVESGGGLVQPGGSLRLSCAASGFTLDRHAIAWFRQAPGLEREGVVCTSSSGAITNTADSVKGRFTISRDDAKNTVYLQMNSLKPEDTAIYYCAVRELWTVQPICEPRPRAYAYWGQGTQVTVSS
notes: as for B2
How did the koff [5] turn out when B7 was run?
Its koff is 0.00161 s⁻¹.

And the kon [5]?
Its kon is 2890 M⁻¹ s⁻¹.

And the Kd [6]?
Its Kd is 559 nM.

Does B7 bind [7]?
Result: binds

B8: VHH_(GSDMD-1) (VHH)
VHH: QVQLVESGGALVQPGGSLRLSCSASGFTFSKYLMSWYRQAPGKERELVATITTAGGNTNYADSVKGRFTISRDNAKNTVYLQMNSLKPEDTAVYYCKASGGTIRTVNETYWGQGTQVTVSS
notes: also called VHH-1; source: E. coli WK6, periplasmic expression (pHEN6), purified (Ni-NTA, SEC S75)
Which Kd [1] does the source give for B8 here?
Its Kd is 0.305 nM.

And the koff [1]?
Its koff is 0.00198 s⁻¹.

What about the kon [1] of the same binder?
The kon was 6.48e+06 M⁻¹ s⁻¹.

B9: VHH_(GSDMD-1) (VHH)
VHH: B8 VHH
notes: raised by immunization of an alpaca with full-length recombinant human GSDMD; also called VHH_(GSDMD-1)-LPETG-His; source: E. coli WK6, periplasmic expression (pHEN6), purified (Ni-NTA, gel filtration); not shown: LPETG, C-terminal, kept; His tag, C-terminal, kept
Which “IC50 of calcein release through GSDMD pores in the liposome leakage assay (nanobody 10 nM to 10 µM, 0.5 µM full length GSDMD, caspase-4, 180 min); what is blocked: formation of functional GSDMD pores” value [4] does the source give for B9 here?
Its value is 220 nM.

What about the Kd [2] of the same binder?
The Kd was 0.31 nM.

B10: VHH_(GSDMD-5) (VHH)
VHH: QVQLVETGGGLVQPGGSLRLSCAASGFVFSINPMNWYRQAPGKERELVAYISMRGSTTNYADSVKGRFIISRDNAKNTLYLQMNSLKPEDTAVYYCNAPSRSVWGQGTQVTVSS
notes: also called VHH-5; source: E. coli WK6, periplasmic expression (pHEN6), purified (Ni-NTA, SEC S75)
Which Kd [1] does the source give for B10 here?
The Kd was 0.494 nM.

And the koff [1]?
The koff was 0.00149 s⁻¹.

What about the kon [1] of the same binder?
Its kon is 3.02e+06 M⁻¹ s⁻¹.

B11: VHH_(GSDMD-5) (VHH)
VHH: B10 VHH
notes: as for B2
For B11, which Kd [2] is on record?
Its Kd is 0.49 nM.
